This data set concerns the molecule itself. Description: negative-stain transmission electron microscopy.

The results in this text go back to article PMC8435816 (Synthetic and Systems Biotechnology, 2021).

B1: T. maritima encapsulin with His6 insert with Strep-tag (TmEnc-STII) (natural protein, Thermotoga maritima)
chain: MEFLKRSFAPLTEKQWQEIDNRAREIFKTQLYGRKFVDVEGPGGGGGGHHHHHHGGGGGYGWEYAAHPLGEVEVLSDENEVVKWGLRKSLPLIELRATFTLDLWELDNLERGKPNVDLSSLEETVRKVAEFEDEVIFRGCEKSGVKGLLSFEERKIECGSTPKDLLEAIVRALSIFSKDGIEGPYTLVINTDRWINFLKEEAGHYPLEKRVEECLRGGKIITTPRIEDALVVSERGGDFKLILGQDLSIGYEDREKDAVRLFITETFTFQVVNPEALILLKF
For B1, the binding result was “binds”.
